Patent publication US20260183429A1 (TRUSTEES OF COLUMBIA UNIVERSITY IN THE CITY OF NEW YORK, published 2026)

Target: T1, endogenous MFN2 in WT mouse embryonic fibroblasts (MEFs) (mouse, UniProt Q80U63 1-757)
T1 construct: Detected in situ by proximity ligation assay; also called mitofusin-2
T1 sequence (looked up): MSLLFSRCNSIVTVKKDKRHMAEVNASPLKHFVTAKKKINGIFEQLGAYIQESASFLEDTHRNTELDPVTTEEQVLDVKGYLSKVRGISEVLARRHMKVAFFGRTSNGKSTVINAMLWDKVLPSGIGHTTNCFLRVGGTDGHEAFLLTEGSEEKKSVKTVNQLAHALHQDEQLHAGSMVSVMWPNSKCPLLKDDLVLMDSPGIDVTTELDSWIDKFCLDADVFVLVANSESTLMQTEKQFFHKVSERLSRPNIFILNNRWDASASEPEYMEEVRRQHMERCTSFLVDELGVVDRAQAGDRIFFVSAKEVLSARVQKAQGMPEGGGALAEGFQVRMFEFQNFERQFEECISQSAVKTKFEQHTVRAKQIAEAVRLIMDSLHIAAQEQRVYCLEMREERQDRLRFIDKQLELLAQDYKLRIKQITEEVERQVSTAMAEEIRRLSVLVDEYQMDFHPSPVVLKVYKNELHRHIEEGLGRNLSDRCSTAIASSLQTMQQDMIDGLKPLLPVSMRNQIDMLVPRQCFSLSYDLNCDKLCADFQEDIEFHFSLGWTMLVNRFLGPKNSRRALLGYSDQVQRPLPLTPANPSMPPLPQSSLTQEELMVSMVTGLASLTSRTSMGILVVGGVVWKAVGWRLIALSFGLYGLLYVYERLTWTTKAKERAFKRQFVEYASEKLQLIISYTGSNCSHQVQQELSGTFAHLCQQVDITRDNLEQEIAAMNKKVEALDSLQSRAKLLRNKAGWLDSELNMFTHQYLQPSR
Assay: proximity ligation assay of MFN2 and ATAT1 in WT MEFs

B1: endogenous ATAT1 in WT mouse embryonic fibroblasts (MEFs) (enzyme, UniProt Q8K341 1-421, looked up)
chain: MEFPFDVDALFPERITVLDQHLRPPARRPGTTTPARVDLQQQIMTIVDELGKASAKAQHLPAPITSALRMQSNRHVIYILKDTSARPAGKGAIIGFLKVGYKKLFVLDDREAHNEVEPLCILDFYIHESVQRHGHGRELFQHMLQKERVEPHQLAIDRPSPKLLKFLNKHYNLETTVPQVNNFVIFEGFFAHQHRPPTSSLRATRHSRAAVADPIPAAPARKLPPKRAEGDIKPYSSSDREFLKVAVEPPWPLNRAPRRATPPAHPPPRSSSLGNSPDRGPLRPFVPEQELLRSLRLCPPHPTARLLLATDPGGSPAQRRRTRGTPWGLVAQSCHYSRHGGFNTSFLGTGNQERKQGEQEAEDRSASEDRVLLLDGSGEEPTQTGAPRAQAPPPQSWTVGGDIMNARVIRNLQERRSTRPW
notes: Detected in situ by proximity ligation assay
B1: binds.
